Laboratory results published in article PMC5678581 (BMC Biology, 2017).

Key:
[1] = system: His-TRIM25 (Homo sapiens); experiment: EMSA; details: 3 mM Mg2+, 0.5 mM ATP; EMSA: 4.8 mM Tris pH 8, 144 mM NaCl, 0.96 mM DTT, 3 mM MgCl2, 0.5 mM ATP, 37.5 mM creatine phosphate, 16 uL, ~0.1 pmol RNA, 4 C 1 h; pull-down conditions not …
[2] = biological target: the molecule itself; experiment: SEC-MALS; approximately 0.75 mg/mL on Superdex200 Increase 10/300 GL, 1.0 mL/min, 10 mM Tris (pH 8.0), 300 mM NaCl, 0.5 mM TCEP; self-association (tetramer)

Molecule: pre-let-7a-1
- Kd [1]: 800 nM

B1: recombinant His-tagged TRIM25ΔRBD (lacking residues 470–508) (natural protein, human, UniProt Q14258 1-630, looked up)
chain: MAELCPLAEELSCSICLEPFKEPVTTPCGHNFCGSCLNETWAVQGSPYLCPQCRAVYQARPQLHKNTVLCNVVEQFLQADLAREPPADVWTPPARASAPSPNAQVACDHCLKEAAVKTCLVCMASFCQEHLQPHFDSPAFQDHPLQPPVRDLLRRKCSQHNRLREFFCPEHSECICHICLVEHKTCSPASLSQASADLEATLRHKLTVMYSQINGASRALDDVRNRQQDVRMTANRKVEQLQQEYTEMKALLDASETTSTRKIKEEEKRVNSKFDTIYQILLKKKSEIQTLKEEIEQSLTKRDEFEFLEKASKLRGISTKPVYIPEVELNHKLIKGIHQSTIDLKNELKQCIGRLQEPTPSSGDPGEHDPASTHKSTRPVKKVSKEEKKSKKPPPVPALPSKLPTFGAPEQLVDLKQAGLEAAAKATSSHPNSTSLKAKVLETFLAKSRPELLEYYIKVILDYNTAHNKKGIHYWEVELQKNNFCGVGICYGSMNRQGPESRLGRNSASWCVEWFNTKISAWHNNVEKTLPSTKATRVGVLLNCDHGFVIFFAVADKVHLMYKFRVDFTEALYPAFWVFSAGATLSICSPK
- stoichiometry N [2]: 4
